From patent publication US20260116996A1 (REGENTS OF THE UNIVERSITY OF MINNESOTA, published 2026)
Values belong to the binder of their own block, whether it stands above or below them.

Legend:
human serpinB1 = target: T1, human serpinB1 (human, UniProt P30740 1-379); experiment: Luminex bead assay, beads coated with human serpinB1, background (Gfp and Scgn beads) subtracted
T1 construct: Luminex antigen captured from a 293 cell lysate; not shown: V5-His tag of the pcDNA3.1 Directional V5-His-TOPO vector
T1 sequence (looked up): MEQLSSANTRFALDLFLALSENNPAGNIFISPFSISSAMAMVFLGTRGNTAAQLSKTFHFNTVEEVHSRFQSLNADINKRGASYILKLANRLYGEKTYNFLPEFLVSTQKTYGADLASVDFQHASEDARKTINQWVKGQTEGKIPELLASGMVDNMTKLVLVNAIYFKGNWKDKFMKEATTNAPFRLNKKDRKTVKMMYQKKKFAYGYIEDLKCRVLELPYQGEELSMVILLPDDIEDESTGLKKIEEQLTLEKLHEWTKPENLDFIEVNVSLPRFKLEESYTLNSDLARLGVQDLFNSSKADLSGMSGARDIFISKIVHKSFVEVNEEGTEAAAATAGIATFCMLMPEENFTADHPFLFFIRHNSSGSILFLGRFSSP
Protocol: (§1) The latter was determined as the average antibody binding to Luminex beads coated with Gfp and Scgn control antigens. Similar data were obtained for antigen binding of Fab fragments of these antibodies (data not shown).
(§2) Luminex assay. Luminex-based technology was used to measure serpinB13 AA in human samples. Initially, the Luminex beads were precoated with serpinB13, Gfp and Scgn, using precleared lysates of 293 cells that had been transfected with individual cDNAs. Biotinylated mouse anti-human K and 2 chain mAbs (BD Biosciences) (dilution 1:300) and streptavidin (Invitrogen) (dilution 1:200) were used as secondary reagents to measure human serum binding activity to individual antigens. The data were expressed as fluorescence intensity (F.I.) due to serum binding activity in the presence of beads precoated with serpinB13 and after subtracting the average F.I. due to serum binding activity in the presence of beads precoated with control proteins, Gfp and Scgn (e.g. F.I.^B13-[F.I.^GFP+F.I.^Segn]/2). The samples were evaluated based on the level of F.I. and the degree of inhibition of binding to serpin-B13 coated beads with soluble serpinB13 (2.5 μg/mL), compared with the bovine serum albumin (BSA). […] All samples were run blind on three independent occasions. Subjects with serum samples that produced a positive results three times were considered positive. Subjects with serum samples that produced a negative result on at least one occasion were considered negative.
(§3) To determine whether anti-serpin activity is specific, binding of three human recombinant antibodies to serpinB13 was examined for potential cross-reactivity with other clade B serpins. Binding to the beads conjugated with Gfp and Scgn was used to subtract the background and the assay was developed using the same reagents as those described above for measuring serpinB13 AA in serum samples.

human serpinB7 = target: T2, human serpinB7 (human, UniProt O75635 1-380); experiment: Luminex bead assay, beads coated with human serpinB7, background (Gfp and Scgn beads) subtracted
T2 construct: Luminex antigen captured from a 293 cell lysate; not shown: V5-His tag of the pcDNA3.1 Directional V5-His-TOPO vector
T2 sequence (looked up): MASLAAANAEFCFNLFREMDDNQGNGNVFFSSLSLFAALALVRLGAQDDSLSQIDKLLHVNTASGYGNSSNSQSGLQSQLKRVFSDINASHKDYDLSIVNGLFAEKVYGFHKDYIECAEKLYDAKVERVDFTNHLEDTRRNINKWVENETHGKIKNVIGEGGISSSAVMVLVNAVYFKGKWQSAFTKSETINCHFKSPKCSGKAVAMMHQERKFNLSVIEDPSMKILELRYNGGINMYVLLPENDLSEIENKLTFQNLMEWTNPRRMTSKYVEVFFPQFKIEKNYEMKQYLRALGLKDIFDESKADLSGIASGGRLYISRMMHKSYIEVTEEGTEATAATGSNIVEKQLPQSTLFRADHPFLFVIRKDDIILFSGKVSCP
Protocol: as §1, §2, §3

human serpinB8 = target: T3, human serpinB8 (human, UniProt P50452 1-374); experiment: Luminex bead assay, beads coated with human serpinB8, background (Gfp and Scgn beads) subtracted
T3 construct: Luminex antigen captured from a 293 cell lysate; not shown: V5-His tag of the pcDNA3.1 Directional V5-His-TOPO vector
T3 sequence (looked up): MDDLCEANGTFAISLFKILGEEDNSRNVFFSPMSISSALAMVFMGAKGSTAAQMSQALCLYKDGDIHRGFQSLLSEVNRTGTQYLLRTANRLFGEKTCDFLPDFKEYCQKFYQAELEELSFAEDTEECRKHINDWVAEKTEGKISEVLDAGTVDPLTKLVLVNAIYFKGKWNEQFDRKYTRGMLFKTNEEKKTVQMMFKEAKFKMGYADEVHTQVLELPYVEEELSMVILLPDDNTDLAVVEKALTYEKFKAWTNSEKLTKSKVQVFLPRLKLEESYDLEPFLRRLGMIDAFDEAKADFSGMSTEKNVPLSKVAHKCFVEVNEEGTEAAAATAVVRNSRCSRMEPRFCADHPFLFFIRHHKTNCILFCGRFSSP
Protocol: as §1, §2, §3

human serpinB9 = target: T4, human serpinB9 (human, UniProt P50453 1-376); experiment: Luminex bead assay, beads coated with human serpinB9, background (Gfp and Scgn beads) subtracted
T4 construct: Luminex antigen captured from a 293 cell lysate; not shown: V5-His tag of the pcDNA3.1 Directional V5-His-TOPO vector
T4 sequence (looked up): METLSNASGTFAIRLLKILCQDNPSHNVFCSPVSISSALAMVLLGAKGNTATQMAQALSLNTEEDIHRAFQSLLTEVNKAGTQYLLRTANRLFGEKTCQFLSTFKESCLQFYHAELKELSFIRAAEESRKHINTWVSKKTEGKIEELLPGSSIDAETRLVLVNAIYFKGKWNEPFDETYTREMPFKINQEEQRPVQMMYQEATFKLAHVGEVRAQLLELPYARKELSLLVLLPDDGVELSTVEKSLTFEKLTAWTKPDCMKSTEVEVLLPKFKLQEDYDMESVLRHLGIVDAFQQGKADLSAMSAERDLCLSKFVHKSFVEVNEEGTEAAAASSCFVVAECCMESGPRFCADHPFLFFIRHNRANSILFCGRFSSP
Protocol: as §1, §2, §3

human serpinB11 = target: T5, human serpinB11 (human, UniProt Q96P15 1-392); experiment: Luminex bead assay, beads coated with human serpinB11, background (Gfp and Scgn beads) subtracted
T5 construct: Luminex antigen captured from a 293 cell lysate; not shown: V5-His tag of the pcDNA3.1 Directional V5-His-TOPO vector
T5 sequence (looked up): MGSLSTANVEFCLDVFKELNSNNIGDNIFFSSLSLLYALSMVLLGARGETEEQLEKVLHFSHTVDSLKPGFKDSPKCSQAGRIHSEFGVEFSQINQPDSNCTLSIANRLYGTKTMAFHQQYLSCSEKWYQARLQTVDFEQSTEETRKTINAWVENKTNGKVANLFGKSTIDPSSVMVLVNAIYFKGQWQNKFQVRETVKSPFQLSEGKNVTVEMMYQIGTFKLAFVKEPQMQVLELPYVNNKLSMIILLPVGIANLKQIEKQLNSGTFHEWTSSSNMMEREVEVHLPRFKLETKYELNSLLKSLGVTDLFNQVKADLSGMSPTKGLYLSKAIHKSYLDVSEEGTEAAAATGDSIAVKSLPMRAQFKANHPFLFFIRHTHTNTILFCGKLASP
Protocol: as §1, §2, §3

binding result (human serpinB1): no binding (tested: 1.0 µg/mL) | binding result (human serpinB7): no binding (tested: 1.0 µg/mL) | binding result (human serpinB8): no binding (tested: 1.0 µg/mL) | binding result (human serpinB9): no binding (tested: 1.0 µg/mL) | binding result (human serpinB11): no binding (tested: 1.0 µg/mL)
B1: recombinant fully human anti-serpinB13 antibody Clone 2 (antibody, human IgG1, kappa, V domains shown)
VH: QMQLVQSGGGVVRPGGSLRLSCAASGFTFDDYGMSWVRQAPGKGLEWVSGINWNGGSTGYADSVKGRFTISRDNAKNSLYLQMNSLRAEDTALYYCARESSMTTVTTYLLREVGVGLDFDYWGQGTLVTVSS
VL: ETTLTQSPGTLSLSPGERATLSCRASQTVSGSYLAWYQQKPGQPPRLLIYGASSRATGIPDRFSGSGSGTDFTLTISRLEPEDFAVYYCQDYGSSRTFGQGTKVELKR
notes: also called mAb2; CLONE2-H(m1) / CLONE2-L(m1)

binding result (human serpinB1): no binding (tested: 1.0 µg/mL) | binding result (human serpinB7): no binding (tested: 1.0 µg/mL) | binding result (human serpinB8): no binding (tested: 1.0 µg/mL) | binding result (human serpinB9): no binding (tested: 1.0 µg/mL) | binding result (human serpinB11): no binding (tested: 1.0 µg/mL)
B2: recombinant fully human anti-serpinB13 antibody Clone 3 (antibody, human IgG1, kappa, V domains shown)
VH: QVQLQQWGAGLLKPSETLSLTCAVYGGSFSGYYWSWIRQPPGKGLEWIGEINHSGSTNYNPSLKSRVTISVDTSKNQFSLKLSSVTAADTAVYYCARRYCSGGSCYLVGTGSELDYWGQGTLVTVSS
VL: DIQMTQSPSTLSASVGDRVTITCRASQSISSWLAWYQQKPGKAPKLLIYKASSLEIGVPSRFSGSGYGTEFTLTISSLQPDDFATYYCLQYSTHSTFGQGTRVEIKR
notes: also called mAb3; CLONE3-H(m1) / CLONE3-L(m1)

binding result (human serpinB1): no binding (tested: 1.0 µg/mL) | binding result (human serpinB7): no binding (tested: 1.0 µg/mL) | binding result (human serpinB8): no binding (tested: 1.0 µg/mL) | binding result (human serpinB9): no binding (tested: 1.0 µg/mL) | binding result (human serpinB11): no binding (tested: 1.0 µg/mL)
B3: recombinant fully human anti-serpinB13 antibody Clone 1 (antibody, human IgG1, kappa, V domains shown)
VH: QVQLQESGGGVVQPGRSLRLSCAASGFTFSSYGMHWVRQAPGKGLEWVAVISYDGSNKYYADSVKGRFTISRDNSKNTLYLQMNSLRAEDTAVYYCARDLGAVIAVAGTSTPYNWFDPWGQGTLVTVSS
VL: DVVMTQSPLSLPVTPGEPASISCRSRQSLLHSNGHNYLGWYLQKPGQSPQLLIYLASIRASGIPDRFSGSGSGTDFTLKISRVEAEDVGVYYCMQALQTPYTFGQGTKLEIKR
notes: also called mAb1; mAbs1
